# B1: S40 IgG (antibody, V domains shown)
# VH: EVQLVESGGGLVQPGGSLRLSCAASGFTIGDFGIHWVRQAPGKGLEWVAGIWPFGGYTYYADSVKGRFTISADTSKNTAYLQMNSLRAEDTAVYYCARFVNWDGDYMDYWGQGTLVTVSS
# VL: DIQMTQSPSSLSASVGDRVTITCRASQDVGFYVAWYQQKPGKAPKLLISWSSYLYSGVPSRFSGSGSGTDFTLTISSLQPEDFATYYCQQYYNYPLTFGQGTKVEIK
# notes: copies: 2 + 2
# B2: S40 Fab (Fab, V domains shown)
# VH: B1 VH
# VL: B1 VL
# Assays:
# [1] = molecular target: recombinant hemagglutinin (HA) trimer of H1N1 A/California/07/2009, ectodomain (Influenza A virus A/California/07/2009 …, UniProt C3W5X2); experiment: ELISA; settings: both partners purified
# [2] = molecular target: purified monomeric HA of H1N1 CA/09 (thrombin-digested ectodomain) (Influenza A virus A/California/07/2009 …, UniProt C3W5X2); experiment: crystal structure; settings: both partners purified
binder,measurement,setting,value
B1,binding result,[1],binds
B2,binding result,[2],binds

# — article PMC5663709 (Scientific Reports, 2017)
